Results on six molecules are retold here after patent US20250250357A1 (NANJING ZAIMING PHARMACEUTICAL, published 2025).

Assay [1] deals with T1, human MSLN-R3-his protein (human, UniProt Q13421 487-598).
T1 construct: Made in HEK293E cells, purified on nickel column; also called hMSLN-R3-his; human MSLN-R3 protein; not shown: His tag
Description: ELISA, coated antigen, antibody 1 nM.

Assay [2] concerns the target T2, human MSLN-R3-3 polypeptide (human).
T2 construct: Part of region R3 of human MSLN; also called hMSLN-R3-3; human MSLN-R3-3 protein
Description: ELISA, coated antigen, antibody 1 nM. On the technique in general: An ELISA detects its analyte on a solid surface through an enzyme-linked reagent.
Description: (§1) The plate was sealed with a plastic film and incubated at 4° C. overnight. The next day, the plate was washed twice with PBST, and a blocking buffer [PBS+2% (w/w) BSA] was added for blocking at room temperature for 2 h. The blocking buffer was discarded, and a chimeric antibody or negative control antibody serially diluted from 100 nM was added at 50 μL/well. After incubation at 37° C. for 2 h, the plate was washed 3 times with PBST. […] After incubation at 37° C. for 2 h, the plate was washed 5 times with PBST. A TMB substrate was added at 50 μL/well for incubation at room temperature for 5-10 min, and then a stop solution (1.0 N HCl) was added at 50 μL/well.

For assay [3], the target named is T1, human MSLN-R3-his protein. Kind of assay: ELISA, coated antigen, antibody 10 nM.
Description: as §1
For assay [4], the target named is T2, human MSLN-R3-3 polypeptide. Kind of assay: ELISA, coated antigen, antibody 10 nM.
Description: as §1
The target in assay [5] is T1, human MSLN-R3-his protein. Description: ELISA, coated antigen, antibody 0.1 nM.
Description: as §1
The target of assay [6] is T1, human MSLN-R3-his protein. Kind of assay: ELISA, coated antigen, antibody 100 nM.
Description: as §1
For assay [7], the target named is T2, human MSLN-R3-3 polypeptide. Description: ELISA, coated antigen, antibody 0.1 nM.
Description: as §1
For assay [8] the target is unchanged. Kind of assay: ELISA, coated antigen, antibody 100 nM.
Description: as §1
In assay [9] the target is T1, human MSLN-R3-his protein. Description: ELISA, coated antigen, antibody 0.01 nM.
Description: as §1
The target of assay [10] is T2, human MSLN-R3-3 polypeptide. Description: ELISA, coated antigen, antibody 0.01 nM.
Description: as §1
Assay [11] has as its target T1, human MSLN-R3-his protein. Description: ELISA, coated antigen, antibody 0.001 nM.
Description: as §1
Assay [12] has as its target T2, human MSLN-R3-3 polypeptide. Kind of assay: ELISA, coated antigen, antibody 0.001 nM.
Description: as §1
Assay [13] has as its target T1, human MSLN-R3-his protein. Description: ELISA, coated antigen, antibody 0.0001 nM.
Assay [14] deals with T2, human MSLN-R3-3 polypeptide. Description: ELISA, coated antigen, antibody 0.0001 nM.
Description: as §1
Assay [15] has as its target T1, human MSLN-R3-his protein. Description: ELISA, coated antigen, no antibody (blank).
Description: as §1
For assay [16], the target named is T2, human MSLN-R3-3 polypeptide. Description: ELISA, coated antigen, no antibody (blank).

T1 sequence (Q13421 495-606): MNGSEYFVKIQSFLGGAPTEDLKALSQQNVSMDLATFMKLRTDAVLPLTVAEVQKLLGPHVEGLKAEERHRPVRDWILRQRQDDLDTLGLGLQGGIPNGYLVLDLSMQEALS

B1: S009-F5-9.16 chimeric antibody (antibody, human IgG1, kappa, V domains shown)
VH: EVQLRQSGPVLVKPGASVKMSCKASGYTFTDYFMNWVKPSHGKSLEWIGVINPSNGVINYNQRFKGKATLTVDKSSSTAYMELNSLTSEDSAVYYCARSYDFAWFAYWGQGTLVTVSA
VL: DVLMTQTPLSLPVSLGDQASISCRSSQNIVHSNGNTYLEWYLQKPGQSPKLLIYTVSNRFSGVPDRFSGSGSGTDFTLKISRVEAEDLGVYYCFQGSHVPYTFGGGTKLEIKR
notes: Human-murine chimeric antibody, human IgG1/kappa constant regions
With B1, the OD450 came to 2.32 in assay [1]; 0.13 in assay [2]; 2.36 in assay [3]; 0.67 in [4]; 1.82 in assay [5]; 2.28 in [6]. Besides, the OD450 was found to be 0.05 in [7]; 1.99 in assay [8]; 1.11 in assay [9]; 0.04 in assay [10]; 0.26 in [11]; 0.04 in assay [12]. Moreover, the OD450 is 0.12 in [13], 0.05 in assay [14], 0.05 in assay [15] and 0.05 in assay [16].

B2: S009-F6-62.5 chimeric antibody (antibody, human IgG1, kappa, V domains shown)
VH: QVQLQQPGTELVKPGASVKLSCRASGYTFTAYWMHWVKQRPGQGLEWIGNINPSNGGTDFNEKFKSKATLTVDKSSSTAYMQLSSLTSEDSAVYYCARGRGYFDVWGTGTTVTVSS
VL: DILLTQSPAILSVSPGERVSFSCRASKNIGTSIHWYQQRTNGSPRLLIKYASESISGIPSRFSGSGSGTDFTLNINSVESEDIADYYCQQSNSWPTLTFGAGTKLELKR
notes: as for B1
Consider B2, for which the OD450 in assay [2] was found to be 0.05; in [4], 0.05; in assay [7], 0.04; in [8], 0.09; in assay [10], 0.04; in assay [12], 0.04. Further, the OD450 in [14] stood at 0.04; in [16], 0.05.

B3: Tab106 (YP218, hIgG1) (antibody, V domains shown)
VH: QQQLEESGGGLVKPEGSLTLTCKASGFDLGFYFYACWVRQAPGKGLEWIACIYTAGSGSTYYASWAKGRFTISKASSTTVTLQMTSLAAADTATYFCARSTANTRSTYYLNLWGPGTLVTVSS
VL: DVVMTQTPASVSEPVGGTVTIKCQASQRISSYLSWYQQKPGQRPKLLIFGASTLASGVPSRFKGSGSGTEYTLTISDLECADAATYYCQSYAYFDSNNWHAFGGGTEVVVRT
notes: Control: YP218 VH and VL recombined into human IgG1 CH and CL expression vectors; also called YP218 human IgG1 antibody
Consider B3, for which the OD450 in assay [1] was 1.57; in assay [3], 1.69; in assay [5] it was 0.88; in assay [6] it was 1.79; in assay [9], 0.18; in [11], 0.06. The figures for the OD450 in assay [13] and in assay [15] were 0.05 and 0.07, respectively.

B4: S009-F6-76.1 chimeric antibody (antibody, human IgG1, kappa, V domains shown)
VH: QVQLQQSGPELVKPGASVKISCKASGYTFTDYYINWVKQRPGQGLEWIGWIFPGRGSTFYYEKFKGKATLTVDKSSSTAYMLLSSLTSEDSAVYFCARRGDSAGYEDLDYWGQGTSVTVSS
VL: NIVMTQSPKFMSMSVGERVTLSCKASENVVTYVSWYQQKPKQSPKLLIYGASKRYTGVPDRFTGSGSATDFTLTISSVQAEDLGDYHCGQSYSYPYTFGGGTKLEIKR
notes: as for B1
B4: the OD450 in assay [1] turned out to be 0.04; in assay [2] it was 0.04; in assay [3] it was 0.05; in [4], 0.04; in [5], 0.04; in assay [6] it was 0.08. Also, the OD450 in [7] worked out at 0.05; in assay [8] it was 0.07; in assay [9] it was 0.04; in assay [10], 0.05; in assay [11], 0.05; in assay [12], 0.04. For the same molecule, the OD450 in assay [13] was 0.04; in assay [14] it was 0.05; in assay [15] it was 0.05; in [16], 0.04.

B5: S009-F4-127.10 chimeric antibody (antibody, human IgG1, kappa, V domains shown)
VH: EVQLQQSGPVLVKPGASVKMSCKASGYTFTDYYMNWVKQSHGKSPEWIGVINPYNDVISYNQKFKGKATLTVDKSSSTAYMELNSLTSEDSAVYYCANYGSSYYAMDYWGQGTSVTVSS
VL: DVVMTQTPLSLSVSLGDQASISCRSSQSLVHSNGNTYLQWSLQKPGQSPNLLIYKVSNRFSGVPDRFSGSGSGTDFTLKISRVEAEDLGVYFCSQTTHVPFTFGGGTKLEIRR
notes: as for B1
Take B5: the OD450 is 1.82 in assay [1]; 0.05 in [2]; 1.93 in [3]; 0.06 in assay [4]; 1.31 in assay [5]; 2.1 in assay [6]. Besides, the OD450 in [7] worked out at 0.05; in assay [8], 0.14; in [9], 0.41; in assay [10] it was 0.05; in [11], 0.09; in [12] it was 0.05. Further, the OD450 in assay [13] was found to be 0.06; in assay [14] it was 0.06; in [15] it was 0.07; in assay [16], 0.07.

B6: S009-F4-94.15 chimeric antibody (antibody, human IgG1, kappa, V domains shown)
VH: QVQLHQPGAELVRPGSSVKLSCKASGYTFTSYWVHWVQQRPRQGLEWIGNIDPSDSEIHYNQKFKDKATLTVDKSSSTAYIHLSRLTSEDSAIYYCVRGGVPWFAYWGQGTLVTVSA
VL: QIVLTQSPAIMSASPGEKVTLTCSASSSVSSTYLYWFQQKPGSSPKVWIYSTSNLASGVPARFSGSGSGTSYSLTISSMEAEDAASYFCHQWISYPYTFGGGTKLEIKR
notes: Human-murine chimeric antibody: murine VH/VL on human IgG1 heavy and kappa light constant regions
For the molecule B6, the OD450 came to 0.11 in [1]; 0.05 in assay [2]; 0.07 in assay [3]; 0.06 in assay [4]; 0.17 in assay [5]; 0.1 in [6]. Further, the OD450 in assay [7] worked out at 0.05; in assay [8], 0.09; in assay [9] it was 0.07; in assay [10], 0.05; in assay [11], 0.05; in assay [12], 0.05. In addition, the OD450 was 0.05 in assay [13], 0.06 in assay [14], 0.07 in assay [15] and 0.07 in assay [16].
